This experiment concerns the target T1, transforming growth factor beta 1 (UniProt P01137 279-390).
T1 construct: Transforming growth factor beta 1 (TGFβ1), the mature growth factor cut from its precursor; The source of the TGFβ1 is told only for the cell assays (PeproTech); also called TGFβ1; TGFβ; source: bought: PeproTech (cell assays)
Put plainly: SPR; BIAcore 3000; which partner was immobilised and the conditions are not given. The following applies: both partners purified. A general note: In SPR one partner is held on a chip, and binding of the other changes the refractive index at the surface.

Our source for the Kd values is PMC4484435, “Leucine-rich α-2-glycoprotein promotes TGFβ1-mediated growth suppression in the Lewis lung carcinoma cell lines” (Oncotarget, 2015).

T1 sequence (P01137 279-390): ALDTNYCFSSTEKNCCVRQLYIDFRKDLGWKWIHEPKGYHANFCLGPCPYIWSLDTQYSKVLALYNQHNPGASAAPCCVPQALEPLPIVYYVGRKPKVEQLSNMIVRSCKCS

B1: Leucine-rich α2-glycoprotein (natural protein)
chain: LKECLILQSAEGSTVSCHGPTEFPSSLPADTVHLSVEFSNLTQLPAAALQGCPGLRELHLSSNRLQALSPELLAPVPRLRALDLTRNALRSLPPGLFSTSANLSTLVLRENQLREVSAQWLQGLDALGHLDLAENQLSSLPSGLLASLGALHTLDLGYNLLESLPEGLLRGPRRLQRLHLEGNRLQRLEDSLLAPQPFLRVLFLNDNQLVGVATGSFQGLQHLDMLDLSNNSLSSTPPGLWAFLGRPTRDMQDGFDISHNPWICDKNLADLCRWLVANRNKMFSQNDTRCAGPEAMKGQRLLDVAELGSL
By Kd is commonly meant a measure of binding affinity in units of concentration. For the molecule B1, the Kd stood at 2.32 µM.
